Measurements from article PMC5662768 (Scientific Reports, 2017).
One block for each binder: values may come before it.

Biological target: T1, glycosylated extracellular domain of human CD38 (aa 46-300) (Homo sapiens, UniProt P28907, glycosylation sites intact (glycosylated))
T1 construct: CD38, human, extracellular domain aa 46-300 with intact glycosylation sites; Amine-coupled to AR2G biosensors in the BLI experiments; also called recombinant human CD38; ectodomain of human CD38; source: secretory protein from the pCSE2.5 vector
Assay: BLI; Octet RED384; recombinant human CD38 amine-coupled to AR2G biosensors; 100 nM and 1 uM nanobody, 5 min association, 10 min dissociation; 25 C; HBS-EP+ pH 7.4; fit 1:1; off-rates only
Conditions: both partners purified

- koff: 0.0044 s⁻¹
B1: single chain variable fragment (scFv) of daratumumab (scFv, V domains shown)
VH: EVQLLESGGGLVQPGGSLRLSCAVSGFTFNSFAMSWVRQAPGKGLEWVSAISGSGGGTYYADSVKGRFTISRDNSKNTLYLQMNSLRAEDTAVYFCAKDKILWFGEPVFDYWGQGTLVTVSS
VL: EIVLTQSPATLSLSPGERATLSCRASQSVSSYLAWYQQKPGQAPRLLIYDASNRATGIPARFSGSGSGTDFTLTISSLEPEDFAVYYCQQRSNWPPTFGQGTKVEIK
notes: VH domain of daratumumab; 15GS linker; VL domain of daratumumab; Order VH - linker - VL as the methods tell it; also called Dara scFv; Daratumumab scFv; source: HEK-6E, transiently transfected (pCSE2.5)

- koff: 0.0009 s⁻¹
B2: CD38-specific nanobody MU1053 (family 14), monovalent, from HEK-6E cells (VHH)
VHH: DVQLQESGGGLVQAGGSLRLSCTGSGRTFRNYPMAWFRQAPGKEREFVAGITWVGASTLYADFAKGRFTISRDNAKNTVYLQMNSLKPEDTAVYSCAAGRGIVAGRIPAEYADWGQGTQVTVSS
notes: structure of MU1053 with CD38 is in PDB 5F1O (nanobody chain); also called l-15.3a; source: HEK-6E, transiently transfected (pCSE2.5), purified (Ni-NTA); not shown: His6, C-terminal, kept; Myc, C-terminal, kept
